Reference: article PMC5751283, “A Split-Luciferase Reporter Recognizing GFP and mCherry Tags to Facilitate Studies of Protein–Protein Interactions” (International Journal of Molecular Sciences, 2017)

Target: the molecule itself
Test: split reporter (BiFC, NanoBiT); GFP- and/or mCherry-tagged targets expressed in Leishmania tarentolae extract (pairs co-expressed, self-associating proteins alone), serially diluted three-fold, mixed 1:1:1 with two split-nanoLuc fusions of anti-GFP or anti-mCherry nanobodies (SLN pairs GL/GS, LC/GS, CL/CS or LC/CFRS, also made in LTE); 10 min at 23 °C; buffer A (25 mM HEPES pH 7.4, 50 mM NaCl); background: …

B1: mCherry–SOX9 (natural protein, UniProt P48436 1-509, looked up)
chain: MNLLDPFMKMTDEQEKGLSGAPSPTMSEDSAGSPCPSGSGSDTENTRPQENTFPKGEPDLKKESEEDKFPVCIREAVSQVLKGYDWTLVPMPVRVNGSSKNKPHVKRPMNAFMVWAQAARRKLADQYPHLHNAELSKTLGKLWRLLNESEKRPFVEEAERLRVQHKKDHPDYKYQPRRRKSVKNGQAEAEEATEQTHISPNAIFKALQADSPHSSSGMSEVHSPGEHSGQSQGPPTPPTTPKTDVQPGKADLKREGRPLPEGGRQPPIDFRDVDIGELSSDVISNIETFDVNEFDQYLPPNGHPGVPATHGQVTYTGSYGISSTAATPASAGHVWMSKQQAPPPPPQQPPQAPPAPQAPPQPQAAPPQQPAAPPQQPQAHTLTTLSSEPGQSQRTHIKTEQLSPSHYSEQQQHSPQQIAYSPFNLPHYSPSYPPITRSQYDYTDHQNSSSYYSHAAGQGTGLYSTFTYMNPAQRPMYTPIADTSGVPSIPQTHSPQHWEQPVYTQLTRP
notes: SOX9; also called SOX9–mCherry; mCherry homodimer; source: Leishmania tarentolae cell-free extract (LTE), not purified
In the case of B1, the signal-to-background ratio is reported as 5.
